Measurements taken from patent publication US20030099969A1 (published 2003).
Each block holds one binder with its values, some of them ahead of it.

Columns and labels:
[1] = molecular target: T1, T7-tagged full length Ipaf (human, UniProt Q9NPP4 1-1024); assay: co-immunoprecipitation from 293T lysates (IP anti-Flag, blot anti-T7)
T1 construct: also called T7-Ipaf; T7-tagged Ipaf
Protocol: 24 hours following transfection, cells were lysed in 50 mM Tris/HCl pH 7.6, 150 mM NaCl containing 0.5% NP-40, 10 μg.ml⁻¹ leupeptin and aprotinin and 0.1 mM PMSF and clarified by centrifugation at 15,000 g for 15 min. The clarified lysates were preabsorbed on protein G-Sepharose (Pharmacia) and then incubated with anti-FLAG-M5 monoclonal antibody (Eastman Kodak Co.) for 2 hours, followed by protein G-Sepharose agarose IgG beads. Immune complexes were washed extensively in the lysis buffer and eluted by boiling in an SDS sample buffer. The eluted proteins were resolved by SDS-PAGE and detected by Western analysis with a horseradish peroxidase-conjugate T7-antibody (Novagen). GST Pull-down assays were performed as described (Ahmad et al., Cancer Res 57:615-9, 1997).
24 hours following transfection, cells were lysed and the lysates immunoprecipitated (IP) with an anti-Flag antibody. The immunoprecipitates were immunoblotted (IB) with an anti-T7 antibody. Expression of T7-Ipaf or Flag-tagged constructs was determined by immunoblotting (IB) with anti-T7 or anti-Flag antibodies, respectively. […] This association was dependent on the N-terminal CARD as deletion of this domain prevented the CARD-truncated Ipaf mutant from interacting with the full-length Ipaf. Moreover, the epitope-tagged CARD of Ipaf was able to co-immunoprecipitate the full-length protein.

Ipaf 1-661 = molecular target: T2, Ipaf 1-661
T2 chain: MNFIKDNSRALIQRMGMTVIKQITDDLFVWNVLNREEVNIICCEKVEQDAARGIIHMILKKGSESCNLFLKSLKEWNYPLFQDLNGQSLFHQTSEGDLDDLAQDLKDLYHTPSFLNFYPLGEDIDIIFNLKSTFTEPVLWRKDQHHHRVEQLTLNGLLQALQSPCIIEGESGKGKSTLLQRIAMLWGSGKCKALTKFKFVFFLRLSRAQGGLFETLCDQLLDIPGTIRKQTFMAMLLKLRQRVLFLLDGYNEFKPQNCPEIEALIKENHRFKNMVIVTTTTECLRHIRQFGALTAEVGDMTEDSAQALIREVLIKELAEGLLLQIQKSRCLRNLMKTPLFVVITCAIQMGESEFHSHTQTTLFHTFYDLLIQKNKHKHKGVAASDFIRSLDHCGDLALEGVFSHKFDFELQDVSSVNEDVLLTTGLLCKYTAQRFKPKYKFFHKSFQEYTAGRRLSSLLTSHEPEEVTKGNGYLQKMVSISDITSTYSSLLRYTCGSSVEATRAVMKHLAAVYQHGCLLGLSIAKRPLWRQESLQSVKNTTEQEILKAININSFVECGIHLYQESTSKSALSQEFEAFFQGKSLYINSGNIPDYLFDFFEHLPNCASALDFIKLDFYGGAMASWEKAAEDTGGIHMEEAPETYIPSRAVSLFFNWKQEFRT

[2] = molecular target: T3, T7-tagged full length Ipaf
T3 chain: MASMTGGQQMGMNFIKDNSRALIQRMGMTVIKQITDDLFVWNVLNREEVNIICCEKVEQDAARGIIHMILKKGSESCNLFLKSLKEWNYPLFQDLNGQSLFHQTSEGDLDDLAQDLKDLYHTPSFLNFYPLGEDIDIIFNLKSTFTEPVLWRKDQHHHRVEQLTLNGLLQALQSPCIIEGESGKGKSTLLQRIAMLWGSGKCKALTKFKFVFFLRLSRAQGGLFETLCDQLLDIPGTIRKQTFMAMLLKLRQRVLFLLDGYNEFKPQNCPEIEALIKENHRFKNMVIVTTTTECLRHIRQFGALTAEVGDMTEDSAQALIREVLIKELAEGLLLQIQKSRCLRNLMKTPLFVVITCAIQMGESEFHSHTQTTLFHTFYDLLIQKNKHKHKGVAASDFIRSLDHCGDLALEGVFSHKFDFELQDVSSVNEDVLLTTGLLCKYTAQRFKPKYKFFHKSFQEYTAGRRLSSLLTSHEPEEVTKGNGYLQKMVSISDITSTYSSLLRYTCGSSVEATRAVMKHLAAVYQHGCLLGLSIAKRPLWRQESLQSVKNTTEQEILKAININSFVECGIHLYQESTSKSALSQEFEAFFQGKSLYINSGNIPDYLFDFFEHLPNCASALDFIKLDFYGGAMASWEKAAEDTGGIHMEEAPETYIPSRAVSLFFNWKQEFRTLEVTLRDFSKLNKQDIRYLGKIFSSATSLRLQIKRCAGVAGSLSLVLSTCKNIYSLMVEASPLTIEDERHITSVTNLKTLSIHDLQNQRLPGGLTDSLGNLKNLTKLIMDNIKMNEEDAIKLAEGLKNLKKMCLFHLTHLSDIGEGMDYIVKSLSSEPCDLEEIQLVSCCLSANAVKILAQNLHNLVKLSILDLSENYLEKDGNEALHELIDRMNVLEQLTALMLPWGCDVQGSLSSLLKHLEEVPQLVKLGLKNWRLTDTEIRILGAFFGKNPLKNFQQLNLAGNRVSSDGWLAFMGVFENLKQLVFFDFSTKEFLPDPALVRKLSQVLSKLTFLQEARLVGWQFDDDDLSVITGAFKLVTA

binding result [1]: no binding
B1: Flag-tagged CARD-deleted mutant (residues 80-1024) of Ipaf (other)
chain: DYKDDDDKLFQDLNGQSLFHQTSEGDLDDLAQDLKDLYHTPSFLNFYPLGEDIDIIFNLKSTFTEPVLWRKDQHHHRVEQLTLNGLLQALQSPCIIEGESGKGKSTLLQRIAMLWGSGKCKALTKFKFVFFLRLSRAQGGLFETLCDQLLDIPGTIRKQTFMAMLLKLRQRVLFLLDGYNEFKPQNCPEIEALIKENHRFKNMVIVTTTTECLRHIRQFGALTAEVGDMTEDSAQALIREVLIKELAEGLLLQIQKSRCLRNLMKTPLFVVITCAIQMGESEFHSHTQTTLFHTFYDLLIQKNKHKHKGVAASDFIRSLDHCGDLALEGVFSHKFDFELQDVSSVNEDVLLTTGLLCKYTAQRFKPKYKFFHKSFQEYTAGRRLSSLLTSHEPEEVTKGNGYLQKMVSISDITSTYSSLLRYTCGSSVEATRAVMKHLAAVYQHGCLLGLSIAKRPLWRQESLQSVKNTTEQEILKAININSFVECGIHLYQESTSKSALSQEFEAFFQGKSLYINSGNIPDYLFDFFEHLPNCASALDFIKLDFYGGAMASWEKAAEDTGGIHMEEAPETYIPSRAVSLFFNWKQEFRTLEVTLRDFSKLNKQDIRYLGKIFSSATSLRLQIKRCAGVAGSLSLVLSTCKNIYSLMVEASPLTIEDERHITSVTNLKTLSIHDLQNQRLPGGLTDSLGNLKNLTKLIMDNIKMNEEDAIKLAEGLKNLKKMCLFHLTHLSDIGEGMDYIVKSLSSEPCDLEEIQLVSCCLSANAVKILAQNLHNLVKLSILDLSENYLEKDGNEALHELIDRMNVLEQLTALMLPWGCDVQGSLSSLLKHLEEVPQLVKLGLKNWRLTDTEIRILGAFFGKNPLKNFQQLNLAGNRVSSDGWLAFMGVFENLKQLVFFDFSTKEFLPDPALVRKLSQVLSKLTFLQEARLVGWQFDDDDLSVITGAFKLVTA
notes: also called Flag-?CARD Ipag; CARD-truncated Ipaf mutant

B2: N-terminally Flag-tagged procaspase-1 (protein)
chain: DYKDDDDKMADKVLKEKRKLFIRSMGEGTINGLLDELLQTRVLNKEEMEKVKRENATVMDKTRALIDSVIPKGAQACQICITYICEEDSYLAGTLGLSADQTSGNYLNMQDSQGVLSSFPAPQAVQDNPAMPTSSGSEGNVKLCSLEEAQRIWKQKSAEIYPIMDKSSRTRLALIICNEEFDSIPRRTGAEVDITGMTMLLQNLGYSVDVKKNLTASDMTTELEAFAHRPEHKTSDSTFLVFMSHGIREGICGKKHSEQVPDILQLNAIFNMLNTKNCPSLKDKPKVIIIQACRGDSPGVVWFKDSVGVSGNLSLPTTEEFEDDAIKKAHIEKDFIAFCSSTPDNVSWRHPTMGSVFIGRLIEHMQEYACSCDVEEIFRKVRFSFEQPDGRAQMPTTERVTLTRCFYLFPGH
proteolytic activation (processing) of procaspase-1, anti-Flag immunoblot of 293T lysates (Ipaf 1-661): Co-expression of the LRR-truncated Ipaf mutant, but not the full-length protein, was able to induce proteolytic activation of procaspase-1
proteolytic activation (processing) of procaspase-1, anti-Flag immunoblot of 293T lysates [2]: Co-expression of the LRR-truncated Ipaf mutant, but not the full-length protein, was able to induce proteolytic activation of procaspase-1
